From patent US20110165592A1 (HOFFMAN LA ROCHE, published 2011) come the findings set out here.

For experiment [1], the target named is T1, biotinylated peptide 382-402 (corresponding to the mature EPOR) (human, biotinylated (site not stated)).
T1 construct: Range counted on mature human EPOR (aa406-426 of the precursor); also called EPOR peptide 382-402
T1 peptide: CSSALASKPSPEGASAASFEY
The experiment in a line: Biacore 3000 SPR, 25 C, antibody on immobilized biotinylated peptide (avidity). As for the experimental part: Measurements were made on a BIACORE™ 3000 at 25° C. in HBS-EP-Buffer, pH 7.4 (10 mM HEPES, 150 mM NaCl, 3.4 mM EDTA, 0.005% polysorbate 20 (w/v). 1.0 mg/ml CMD was added to reduce unspecific binding. Results are shown in Table 1.

Experiment [2] concerns the target T2, human EPO receptor (human, UniProt P19235 25-508).
T2 construct: whole, on cells; In the Western blots the receptor stood in lysates of HeLa-EPOR (recombinant) and UT-7 cells; band of about 60 kDa; also called human erythropoietin receptor
T2 sequence (looked up): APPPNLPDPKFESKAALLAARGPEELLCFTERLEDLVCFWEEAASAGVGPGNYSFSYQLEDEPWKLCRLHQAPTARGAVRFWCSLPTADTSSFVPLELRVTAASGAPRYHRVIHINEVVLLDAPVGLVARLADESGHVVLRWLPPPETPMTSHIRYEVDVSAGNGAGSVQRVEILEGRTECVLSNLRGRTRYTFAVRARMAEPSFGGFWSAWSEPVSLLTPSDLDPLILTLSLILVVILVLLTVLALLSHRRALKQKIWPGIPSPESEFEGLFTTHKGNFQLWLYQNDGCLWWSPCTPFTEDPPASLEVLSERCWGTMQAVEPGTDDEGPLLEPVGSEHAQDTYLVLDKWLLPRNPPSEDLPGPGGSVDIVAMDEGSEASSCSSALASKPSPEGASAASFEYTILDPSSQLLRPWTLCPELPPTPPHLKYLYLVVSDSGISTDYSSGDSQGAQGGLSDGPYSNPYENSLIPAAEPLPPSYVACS
The experiment in a line: Western blot of lysates of HELAwt, HELA-EPOR and UT-7 cells. How it is done:
FIG. 2 WB analysis of lysates from HELAwt, HELA-EPOR and UT-7 cells (to show specificity). (a) Specific binding of Mab Cl. […] (b) Specific binding of Mab Cl.
The SDS-PAGE and western blotting were performed according to standard procedures and the NuPAGE® gel system of Invitrogen. The extracts corresponding to different number of cells were loaded in each line of a NuPAGE® Novex® 4-12% Bis-Tris gel. The proteins were then transferred onto PVDF membranes and incubated with the respective antibodies overnight at 4° C. After washing, the membranes were incubated with a conjugate anti-mouse or anti-rabbit IgG-POD and developed using ECL reagents (Lumi-Light^PLus western blotting substrate, Roche Diagnostics GmbH): Results are shown in FIG. 2.
A general note: Immunoblotting shows a protein as a band on a membrane.

B1: Mab Cl. 19.1.2 (antibody, V domains shown)
VH: QVQLQQSGAELVRPGSSVKISCKASGYTFSRYWMNWVKQRPGQGLEWIGQIYPGDGDTNYIGDFKGKATLTADKSSSIAYMQLSSLTSEDSAVYFCARLMVPTYGLDYWGQGTSVTVSS
VL: DIVMSQSPSSLAVSAGEKVTMSCKSSQSLLNSRTRKNYLAWYQQKPGQSPKLLIYWASTRESGVPDRFTGSGSGTDFTLTIYSVQAEDLAVYYCKESYILPYTLGGGTKLEIK
notes: Mouse (Balb/c) monoclonal raised against peptide 382-402
Usually koff stands for a measure of how fast the partners let go of each other. The low end stands for a long-lived complex, the high end for a short-lived complex. As usually defined, the kon is a measure of how fast the partners come together. Read a high kon as fast association. In experiment [1], B1 had a Ka of 1.1e+09 M⁻¹, a Kd of 1 nM, a dissociation rate constant (koff) of 0.0021 s⁻¹ and an on-rate (kon) of 1.9e+06 M⁻¹ s⁻¹. Moreover, in experiment [2], the binding result was “binds”.

B2: Mab Cl. 21.3.1 (antibody, V domains shown)
VH: AVQVVESGGDLVKPGGSLQLSCAASGFTFSSYAMSWARQTPEKRLEWVATISGRGTYTYYPDSVKGRFTISRDNAKNILYLQMSSLRSEDTAMYYCTPRLFAYWGQGTLVTVSA
VL: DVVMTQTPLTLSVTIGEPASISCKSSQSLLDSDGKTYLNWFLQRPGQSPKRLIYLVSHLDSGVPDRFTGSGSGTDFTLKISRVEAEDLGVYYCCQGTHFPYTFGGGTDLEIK
B2: the binding result in experiment [2] is recorded as “binds”.
